The text below walks through data of US20210284709A1 (JUNO THERAPEUTICS, published 2021).

The chains are these.
B1: TCR 55 (codon-optimized, cysteine-modified) (TCR)
TCR alpha: GEDVEQSLFLSVREGDSSVINCTYTDSSSTYLYWYKQEPGAGLQLLTYIFSNMDMKQDQRLTVLLNKKDKHLSLRIADTQTGDSAIYFCAVPSGATNKLIFGTGTLLAVQPNIQNPDPAVYQLRDSKSSDKSVCLFTDFDSQTNVSQSKDSDVYITDKCVLDMRSMDFKSNSAVAWSNKSDFACANAFNNSIIPEDTFFPSPESSCDVKLVEKSFETDTNLNFQNLSVIGFRILLLKVAGFNLLMTLRLWSS
TCR beta: EPEVTQTPSHQVTQMGQEVILRCVPISNHLYFYWYRQILGQKVEFLVSFYNNEISEKSEIFDDQFSVERPDGSNFTLKIRSTKLEDSAMYFCASTTRSSYEQYFGPGTRLTVTEDLKNVFPPEVAVFEPSEAEISHTQKATLVCLATGFYPDHVELSWWVNGKEVHSGVCTDPQPLKEQPALNDSRYCLSSRLRVSATFWQNPRNHFRCQVQFYGLSENDEWTQDRAKPVTQIVSAEAWGRADCGFTSESYQQGVLSATILYEILLGKATLYAVLVSALVLMAMVKRKDSRG
B2: TCR 31 (codon-optimized, cysteine-modified) (TCR, V domains shown)
V domain 1: DQQVKQNSPSLSVQEGRISILNCDYTNSMFDYFLWYKKYPAEGPTFLISISSIKDKNEDGRFTVFLNKSAKHLSLHIVPSQPGDSAVYFCAASERGTYKYIFGTGTRLKVLA
V domain 2: GAGVSQSPSNKVTEKGKDVELRCDPISGHTALYWYRQSLGQGLEFLIYFQGNSAPDKSGLPSDRFSAERTGGSVSTLTIQRTQQEDSAVYLCASSRFLGSTDTQYFGPGTRLTVLE
B3: TCR 53 (codon-optimized, cysteine-modified) (TCR, V domains shown)
V domain 1: AQSVAQPEDQVNVAEGNPLTVKCTYSVSGNPYLFWYVQYPNRGLQFLLKYITGDNLVKGSYGFEAEFNKSQTSFHLKKPSALVSDSALYFCAVRDFGSGTYKYIFG
V domain 2: GAGVSQSPRYKVTKRGQDVALRCDPISGHVSLYWYRQALGQGPEFLTYFNYEAQQDKSGLPNDRFSAERPEGSISTLTIQRTEQRDSAMYRCASSGSGTSGYNEQFFGPGTRLTVLE
B4: TCR 32 (codon-optimized, cysteine-modified) (TCR, V domains shown)
V domain 1: TQLLEQSPQFLSIQEGENLTVYCNSSSVFSSLQWYRQEPGEGPVLLVTVVTGGEVKKLKRLTFQFGDARKDSSLHITAAQPGDTGLYLCAGGSNYKLTFGKGTLLTVNP
V domain 2: DSGVTQTPKHLITATGQRVTLRCSPRSGDLSVYWYQQSLDQGLQFLIQYYNGEERAKGNILERFSAQQFPDLHSELNLSSLELGDSALYFCASSVGGDHSDEQFFGPGTRLTVLE
B5: TCR 48 (codon-optimized, cysteine-modified) (TCR, V domains shown)
V domain 1: QKEVEQDPGPLSVPEGAIVSLNCTYSNSAFQYFMWYRQYSRKGPELLMYTYSSGNKEDGRFTAQVDKSSKYISLFIRDSQPSDSATYLCAMRIQGAQKLVFGQGTRLTINP
V domain 2: EPEVTQTPSHQVTQMGQEVILRCVPISNHLYFYWYRQILGQKVEFLVSFYNNEISEKSEIFDDQFSVERPDGSNFTLKIRSTKLEDSAMYFCASTGRVSYEQYFGPGTRLTVTE
B6: TCR 51 (codon-optimized, cysteine-modified) (TCR, V domains shown)
V domain 1: QKEVEQNSGPLSVPEGAIASLNCTYSDRGSQSFFWYRQYSGKSPELIMSIYSNGDKEDGRFTAQLNKASQYVSLLIRDSQPSDSATYLCAVNMRGGGSNYKLTFGKGTLLTVNP
V domain 2: EPEVTQTPSHQVTQMGQEVILRCVPISNHLYFYWYRQILGQKVEFLVSFYNNEISEKSEIFDDQFSVERPDGSNFTLKIRSTKLEDSAMYFCAIASRVSYEQYFGPGTRLTVTE
B7: TCR 50 (codon-optimized, cysteine-modified) (TCR, V domains shown)
V domain 1: GEDVEQSLFLSVREGDSSVINCTYTDSSSTYLYWYKQEPGAGLQLLTYIFSNMDMKQDQRLTVLLNKKDKHLSLRIADTQTGDSAIYFCAESPPGTYKYIFGTGTRLKVLA
V domain 2: DSGVTQTPKHLITATGQRVTLRCSPRSGDLSVYWYQQSLDQGLQFLIHYYNGEERAKGNILERFSAQQFPDLHSELNLSSLELGDSALYFCASSATRDAYGYTFGSGTRLTVVE
B8: TCR 20 (codon-optimized, cysteine-modified) (TCR, V domains shown)
V domain 1: AQKVTQAQTEISVVEKEDVTLDCVYETRDTTYYLFWYKQPPSGELVFLIRRNSFDEQNEISGRYSWNFQKSTSSFNFTITASQVVDSAVYFCALWTGANNLFFGTGTRLTVIP
V domain 2: GAVVSQHPSRVICKSGTSVKIECRSLDFQATTMFWYRQFPKQSLMLMATSNEGSKATYEQGVEKDKFLINHASLTLSTLTVTSAHPEDSSFYICSASSLARRSYEQYFGPGTRLTVTE
B9: TCR 16 (codon-optimized, cysteine-modified) (TCR, V domains shown)
V domain 1: KQEVTQIPAALSVPEGENLVLNCSFTDSAIYNLQWFRQDPGKGLTSLLLIQSSQREQTSGRLNASLDKSSGRSTLYIAASQPGDSATYLCAVRPANNNDMRFGAGTRLTVKP
V domain 2: DVKVTQSSRYLVKRTGEKVFLECVQDMDHENMFWYRQDPGLGLRLIYFSYDVKMKEKGDIPEGYSVSREKKERFSLILESASTNQTSMYLCASSLWGRSNQPQHFGDGTRLSILE
B10: TCR 25 (codon-optimized, cysteine-modified) (TCR, V domains shown)
V domain 1: AQKITQTQPGMFVQEKEAVTLDCTYDTSDQSYGLFWYKQPSSGEMIFLIYQGSYDEQNATEGRYSLNFQKARKSANLVISASQLGDSAMYFCAMREGSLTGGGNKLTFGTGTQLKVEL
V domain 2: DVKVTQSSRYLVKRTGEKVFLECVQDMDHENMFWYRQDPGLGLRLIYFSYDVKMKEKGDIPEGYSVSREKKERFSLILESASTNQTSMYLCASSLWGQSNQPQHFGDGTRLSILE
B11: TCR 19 (codon-optimized, cysteine-modified) (TCR, V domains shown)
V domain 1: AQKITQTQPGMFVQEKEAVTLDCTYDTSDQSYGLFWYKQPSSGEMIFLIYQGSYDEQNATEGRYSLNFQKARKSANLVISASQLGDSAMYFCAMRENTGTASKLTFGTGTRLQVTL
V domain 2: DVKVTQSSRYLVKRTGEKVFLECVQDMDHENMFWYRQDPGLGLRLIYFSYDVKMKEKGDIPEGYSVSREKKERFSLILESASTNQTSMYLCASSSWGQSTGEQYFGPGTRLTVTE
B12: TCR 15 (codon-optimized, cysteine-modified) (TCR, V domains shown)
V domain 1: AQKITQTQPGMFVQEKEAVTLDCTYDTSDQSYGLFWYKQPSSGEMIFLIYQGSYDEQNATEGRYSLNFQKARKSANLVISASQLGDSAMYFCAMKPGGYNKLIFGAGTRLAVHP
V domain 2: DAGVIQSPRHEVTEMGQEVTLRCKPISGHNSLFWYRQTMMRGLELLIYFNNNVPIDDSGMPEDRFSAKMPNASFSTLKIQPSEPRDSAVYFCASSLVGRSRTEQYFGPGTRLTVTE
B13: TCR 26 (codon-optimized, cysteine-modified) (TCR, V domains shown)
V domain 1: AQKITQTQPGMFVQEKEAVTLDCTYDTSDQSYGLFWYKQPSSGEMIFLIYQGSYDEQNATEGRYSLNFQKARKSANLVISASQLGDSAMYFCAMRDARNNDMRFGAGTRLTVKP
V domain 2: NAGVTQTPKFRVLKTGQSMTLLCAQDMNHEYMYWYRQDPGMGLRLIHYSVGEGTTAKGEVPDGYNVSRLKKQNFLLGLESAAPSQTSVYFCASSYYASGRNYEQYFGPGTRLTVTE
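Wherever % cells E6 tet+/CD8+ quadrant is given: CD4+ and CD4+/CD8+ cell mixtures transiently given TCR plasmids, analysed 48 h post-transfection by flow cytometry with E6(29-38)–HLA-A*02:01 tetramer plus anti-CD8 antibody co-stain.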
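Wherever % cells E6 tet+/CD8- quadrant is given: CD4+ and CD4+/CD8+ cell mixtures transiently given TCR plasmids, analysed 48 h post-transfection by flow cytometry with E6(29-38)–HLA-A*02:01 tetramer plus anti-CD8 antibody co-stain.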
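Wherever % cells E7 tet+/CD8+ quadrant is given: cells transiently transfected with TCR-encoding plasmids, analysed 48 h afterwards by co-staining with HLA-A*02:01 peptide tetramer and anti-CD8 antibody.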
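Wherever % cells E7 tet+/CD8- quadrant is given: cells transiently transfected with TCR-encoding plasmids, analysed 48 h afterwards by co-staining with HLA-A*02:01 peptide tetramer and anti-CD8 antibody.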

The first test deals with T1, HLA-A2/E7(11-19) tetramer (human; HPV 16).
T1 construct: also called E7(11-19) peptide-MHC tetramer; E7 tet
The test is described as follows: flow cytometry, tetramer + anti-CD8; transfected mix of CD8- and CD8+ Jurkat-derived cells.
Protocol: (§1) For transfection, the CD4+ and CD4+/CD8+ cell mixtures were transiently transfected with TCR-encoding plasmids and 48 hours after transfection, cells were assessed by flow cytometry for (1) binding of the target peptide in the context of an MHC molecule (HLA:A02:01) by staining with an E6(29-38) peptide- or an E7(11-19) peptide-MHC tetramer reagent, and/or (2) CD8+ independent binding of the target by co-staining the tetramer-labeled cells with an anti-CD8 antibody.
For the molecule B1, the “% cells E7 tet+/CD8+ quadrant” value came to 1.45% and the “% cells E7 tet+/CD8- quadrant” value was found to be 0.28%.
With B2, the “% cells E7 tet+/CD8+ quadrant” value came out at 4.52% and the “% cells E7 tet+/CD8- quadrant” value was 0.042%.
In the case of B3, the “% cells E7 tet+/CD8+ quadrant” value is 3.35% and the “% cells E7 tet+/CD8- quadrant” value amounted to 0.43%.
Consider B4, for which the “% cells E7 tet+/CD8+ quadrant” value came out at 25.3% and the “% cells E7 tet+/CD8- quadrant” value worked out at 33.5%.
As for B5, the “% cells E7 tet+/CD8+ quadrant” value turned out to be 5.36% and the “% cells E7 tet+/CD8- quadrant” value worked out at 1.29%.
On to B6, for which the “% cells E7 tet+/CD8+ quadrant” value worked out at 5.7% and the “% cells E7 tet+/CD8- quadrant” value came out at 2.06%.
With B7, the “% cells E7 tet+/CD8+ quadrant” value is 3.28% and the “% cells E7 tet+/CD8- quadrant” value was determined as 0.25%.

The next test addresses T2, HLA-A2/E6(29-38) tetramer (human; HPV 16).
T2 construct: also called E6(29-38) peptide-MHC tetramer; E6 tet
The test is described as above.
Protocol: as §1
Regarding B8, the “% cells E6 tet+/CD8+ quadrant” value was 38.2% and the “% cells E6 tet+/CD8- quadrant” value worked out at 34.1%.
With B9, the “% cells E6 tet+/CD8+ quadrant” value came out at 35.6% and the “% cells E6 tet+/CD8- quadrant” value was 28.2%.
The corresponding values for B10 are 34% and 14.7%.
The corresponding values for B11 are 35.5% and 20.8%.
In the case of B12, the “% cells E6 tet+/CD8+ quadrant” value is 21.4% and the “% cells E6 tet+/CD8- quadrant” value amounted to 40.2%.
On to B13, for which the “% cells E6 tet+/CD8+ quadrant” value was determined as 42.3% and the “% cells E6 tet+/CD8- quadrant” value was determined as 47.4%.
